Substitutions are numbered along the chain they refer to.

Test [1] concerns the target T1, human CD38 protein immobilised on AR2G biosensor (human, UniProt P28907 43-300, limits assumed).
T1 construct: Construct used on the Octet is not described; also called immobilised human CD38
Kind of test: Octet BLI, immobilised CD38. Background: BLI is a label-free optical method that tracks binding on a fibre tip over time.

Test [2] has as its target T2, human CD38 on cells (human, UniProt P28907 1-300).
T2 construct: also called native CD38; CD38 on LP-1 myeloma cells, CD38-transfected NIH-3T3 cells, blood leukocytes, CD38-transfected DC27.10 cells
Kind of test: binding assays of Example 4.

For test [3], the target named is T3, soluble, non-glycosylated, recombinant human CD38 (human, UniProt P28907 43-300, Alexa 647 conjugate).
T3 construct: also called recombinant human non-glycosylated extracellular domain of CD38
Nature of the test: micro-scale thermophoresis, n = 2.

Test [4] deals with T2, human CD38 on cells. Kind of test: flow cytometry on human blood, bound VHH detected with FITC anti-c-myc 9E10, MFI of CD3-negative lymphocytes. (In general: Flow cytometry measures light scatter and fluorescence of single cells or particles in a stream.)

B1: WF139 (VHH)
VHH: SGGGLVQAGGSQRLSCAASGHTFSSYSMAWFRQAPGKEREFVAANIMSGTNTYYADSVRGRFTMSRDIAKNTVYLQMNSLKEEDTALYYCAAADRFRGWATWRDDPDQYDYWDQGTQVTVSS
notes: His6-Myc-tagged monovalent VHH; also called s-19b; s-19.1b
A word on the koff: it is a measure of how fast the partners let go of each other. Low values mean slow dissociation, high ones fast dissociation. Consider B1, for which the off-rate constant (koff) in test [1] is < 0.00022 s⁻¹.

B2: MU1065 (VHH)
VHH: DVQLQESGGGLVQAGDSLRLSCAASGPHFNNYAIGWFRQAPGKEREFVAGISWSSGSLLYSDSVKGRFTISRDNDKNTAYLQMNSLKPEDTALYYCAAQYQERYYSDFSLKEKGMEYWGKGTLVTVSS
notes: His6-Myc-tagged monovalent VHH; also called I-19.1b; family 19
Consider B2, for which the binding result with human CD38 on cells [2] is reported as “binds”.

B3: MU413 (VHH)
VHH: DVQLQASGGGLVQTGDSLTVSCAASGLSFTRYTMGWYREVPGKERREFVAAVKPAGDSAYYGASVKGRFTASRDNAKNTVTLQMNSLKPEDTAIYYCAAGFPVLTALHIADPDYWGQGTQVTVSP
notes: His6-Myc-tagged monovalent VHH; also called I-15.2b; family 13
With B3, the binding result with human CD38 on cells [2] was “binds”.

B4: WF129 (VHH)
VHH: DVQLQASGGGLVQAGGSLRLSCEFSGRTFSGFAMGWFRQFPGKEREFVAAINWSGSSVDYSDSVKGRFTISRDNVKSTMYLVMNSLKPEDTAVYYCAEARSAELGSSRKIQGYDQWGRGTQVTVSS
notes: His6-Myc-tagged monovalent VHH; also called I-17.1b; family 18
Consider B4, for which the binding result with human CD38 on cells [2] is “binds”.

B5: WF141 (VHH)
VHH: B4 VHH with Q121R
notes: His6-Myc-tagged monovalent VHH; also called I-17.1c; family 18
In the case of B5, the binding result in the test with human CD38 on cells [2] was “binds”.

B6: MU397 (VHH)
VHH: DVQLQASGGGLVQAGGSLRLSCAPSGGTFDAYDMGWYREAPGKKRQFVAAVRSGGGTTRYADSVKGRFTISRDDAKDTVFLQMNSLKPEDTALYYCAADRWGLFSLSIATPTHWGQGTQVTVSS
notes: His6-Myc-tagged monovalent VHH; also called L-15.1a; I-15.1a
One may read the Kd as a measure of binding affinity in units of concentration. As for B6, the equilibrium dissociation constant (Kd) in test [3] worked out at 1 nM.

B7: MU274 (VHH)
VHH: DVQLQESGGGLVQAGGSLRLSCAASGVSFSRYTMGWYREVPGKERREFVAAVRPSGDSTYYGNSVKGRFSISRDDDKNIVYLQMNSLKPEDTAVYYCAAGFPVLVALSIADPDYWGQGTQVTVST
notes: also called L-15.2a; I-15.2a
For the molecule B7, in test [3], the Kd is 3 nM.

B8: Jk34 (VHH)
VHH: QVQLQESGGRLVQPGGSLRLSCAASGRTFSNYAMAWFRQGPGKEREFVAAISAADSTLYADFVKGRFTISRDNAKNTVYLQMNSLKPEDTAVYYCAARWWIAVRAPAEYNYWGQGTQVTVSS
notes: His6-Myc-tagged monovalent VHH; also called I-14.2c; family 11
Turning to B8, the binding result with human CD38 on cells [2] was “binds”.

B9: Jk35 (VHH)
VHH: B8 VHH with Q3K
notes: His6-Myc-tagged monovalent VHH; also called I-14.2d; family 11
Take B9: the binding result in the test with human CD38 on cells [2] is “binds”.

B10: WF114 (VHH)
VHH: VQLQESGGGLVQAGGSLRLSCAASGFTFDDYVIGWFRQAPGKECEGVSSISNNNSTYYADSVKGRFTIASDNAKNTVYLQMNSLKPEDTAVYYCAADVTLNPFTGWNTRSGPMYRYEYDYWGQGTQVTVSS
notes: His6-Myc-tagged monovalent VHH; also called s+/-24b; s-24.1b
Consider B10, for which, in test [1], the koff was < 0.00014 s⁻¹.

B11: Jk20 (VHH)
VHH: QVQLQESGGGLVQAGGSLRLSCAISGRTFIADMGWFRQAPGKEREFQAGITWFGGSTYYADSVKGRFTISRDNTKNTLYLQMNSLKPEDTAIYYCAAGLKRIGDQREADYWGQGTQVTVSS
notes: His6-Myc-tagged monovalent VHH; also called I-13.1a; family 8
As for B11, the binding result with human CD38 on cells [2] is on record as “binds”.

B12: Jk26 (VHH)
VHH: B11 VHH with L18V, A31N
notes: His6-Myc-tagged monovalent VHH; also called I-13.1b; family 8
Consider B12, for which the binding result in the test with human CD38 on cells [2] was “binds”.

B13: Jk27 (VHH)
VHH: B11 VHH with Q1E, Q5V, S120A
notes: His6-Myc-tagged monovalent VHH; also called s-13.1a; family 8
Turning to B13, the binding result in the test with human CD38 on cells [2] is given as “binds”.

B14: JK12 (VHH)
VHH: QVQLQESGGGLVQPGGSLRLSCVASERIFSRNTMGWYRQAPGKQRELVARIASLGITNYADSVKGRFTISSDNAKNTVYLQMNNLKPEDTAVYYCNYWHYAAGRDYWGQGTQVTVSS
notes: His6-Myc-tagged monovalent VHH; also called I-9.1a; family 4
In the case of B14, in the test with human CD38 on cells [2], the binding result is “binds”.

B15: Jk42 (VHH)
VHH: B14 VHH with Q3K, R50Y, A52T, T57A, P87S, Y94N
notes: His6-Myc-tagged monovalent VHH; also called I-9.1d; family 4
For B15, in the test with human CD38 on cells [2], the binding result is “binds”.

B16: Jk14 (VHH)
VHH: B14 VHH with Q1E, Q5V, P14A
notes: His6-Myc-tagged monovalent VHH; also called I-9.1b; family 4
Turning to B16, the binding result with human CD38 on cells [2] is listed as “binds”.

B17: MU1053 (VHH)
VHH: DVQLQESGGGLVQAGGSLRLSCTGSGRTFRNYPMAWFRQAPGKEREFVAGITWVGASTLYADFAKGRFTISRDNAKNTVYLQMNSLKPEDTAVYSCAAGRGIVAGRIPAEYADWGQGTQVTVSS
notes: also called L-15.3; I-15.3a
One may read the EC50 (read off the curve) as the concentration at which the effect is half-maximal. For B17, in the test with human CD38 on cells [4], the “EC50 (read off the curve)” value is ~0.1 nM.

B18: MU523 (VHH)
VHH: DVQLQESGGGLVQAGSSLRISCAVSGVRLDNYAMGWFRQAPGKERESVAGISWSSGTLLYSDSVKGRFAISRDNAKNTVYLQMNSLKPEDTAVYYCAAQYQDRYYDEFTWKEKDMDYWGKGTLVTVSS
notes: His6-Myc-tagged monovalent VHH; also called L-19.1a; I-19.1a
For B18, the Kd in test [3] was 3 nM.

B19: MU1068 (VHH)
VHH: DVQLQASGGGSVQEGESLKLSCVGSGRTFSDWAMGWYRQAPGKDREFVAAVSGAGRGGKPSYANSVKGRFTVSRDNAKNTVYLQMDNLKPEDTAVYYCAADRLVLVALSIADPGFWGQGTRVTVSS
notes: also called L-15.1b; I-15.1b
Take B19: the Kd in test [3] worked out at 1.38 nM.

B20: MU370 (VHH)
VHH: DVQLQASGGGSVQAGGSLTLSCRYSGGFVFRVSSMGWYRQAPGNQRELIATITVGGKTNYKDSVQGRFIISRNDTTVTLQMNRLQPEDTAVYYCNLASTAVGADTWGQGTRVTVSS
notes: also called I-9.2a
Consider B20, for which the Kd in test [3] is 225 nM.

B21: Jk46 (VHH)
VHH: QVQLQESGGGLVQAGGSLRLSCAASGRTFSSVAMGWFRQAPGKEREFVATINWSGGRTTYADSVKGRFTISRDSAKNTVYLQMNSLKPEDTAVYYCAADRFSVVAVEYDYWGQGTQVTVSS
notes: His6-Myc-tagged monovalent VHH; also called family 7
Consider B21, for which, in the test with human CD38 on cells [2], the binding result is “binds”.

B22: Jk25 (VHH)
VHH: QVKLQESGGGLVQPGGSLRLSCVASGSISSIITMGWYRQAPGKQREFVARVIIGGSTGYADSVKGRFTISRDNTKNTVYLEMNSLKPEDTAVYYCNAGNPGTSYHYWGQGTQVTVSS
notes: His6-Myc-tagged monovalent VHH; also called I-9.3a; family 6
As for B22, the binding result with human CD38 on cells [2] is “binds”.

B23: MU737 (VHH)
VHH: DVQLQASGGGLVQAGGSLRLSCAGSGRSFSSYAMGWFRQAPGKAREIVATITRSGGSTNYAVPVKGRFTISRDNAKNTVYLQMSSLKPEDTAVYYCAADRFAVASGTHDLDYWGQGTQVTVSS
notes: His6-Myc-tagged monovalent VHH; also called s-14.1c; family 9
In the case of B23, in the test with human CD38 on cells [4], the binding result was “binds”.

B24: MU727 (VHH)
VHH: B23 VHH with S28T, A44E, I47F, T50S, T52S, R53W, G56S, S57R, A61G, S105I
notes: His6-Myc-tagged monovalent VHH; also called s-14.1d; family 9
Regarding B24, the binding result with human CD38 on cells [2] is listed as “binds”.

B25: MU415 (VHH)
VHH: VQLQASGGGLVQAGGSLRLSCTVSGFTSDDYTVGWFRQAPGLKREGLSCLSRRDGRFYHSNSVKGRFTMSSDDNKNTVYLQLDSLKPDDTAVYYCAATTSVVVLLAPNWYEYWGQGTQVTVSS
notes: also called L+15; I+15b
Turning to B25, the Kd in test [3] was found to be 23 nM.

B26: MU1105 (VHH)
VHH: DVQLQASGGGLVQAGGSLRLSCAASGFTFDDYVIGWFRQAPGKEREGVSSISSSGSIYYADSVKGRFTISSDNAKNTVYLQMNSLKPEDTAVYFCAADVTLNPFTGWDTRSGPMYRYEYDYWGQGTQVTVSS
notes: His6-Myc-tagged monovalent VHH; also called I-24a; I-24.1a
As for B26, the koff in test [1] is < 0.0003 s⁻¹.

B27: MU725 (VHH)
VHH: B26 VHH with A6E, S53N, S54N, G55N, I57T, S70A, F94Y, D108N
notes: His6-Myc-tagged monovalent VHH; also called family 22
With B27, the binding result with human CD38 on cells [4] is listed as “binds”.

B28: MU1103 (VHH)
VHH: B26 VHH with G26E, S54D, I57T, Q81H, F94Y, D108T
notes: His6-Myc-tagged monovalent VHH; also called s-24.1c; family 22
As to B28, in the test with human CD38 on cells [2], the binding result is recorded as “binds”.

B29: Jk24 (VHH)
VHH: QVQLQESGGGLVQPGGSLRLSCAASGIILRIYDMGWYRQAPGKQRELVAEITSGGSTNYADSVKGRFTISRDNAENTVSLQMNSLKPGDTAVYYCNAHHTFAGAYWGQGTQVTVSS
notes: His6-Myc-tagged monovalent VHH; also called I-8.2c; family 2
Turning to B29, the binding result with human CD38 on cells [2] is given as “binds”.

B30: Jk32 (VHH)
VHH: B29 VHH with I27S, I28T, I31L, P41D, D61N, G88E, H98E, A102M
notes: His6-Myc-tagged monovalent VHH; also called I-8.2e; family 2
Turning to B30, the binding result in the test with human CD38 on cells [2] was “binds”.

B31: WF32 (VHH)
VHH: QVQLQESGGGLVQAGGSLRLSCAASGIILRIYDMGWYRQAPGKQRELVAAITSGGSTNYADSVKGRFTISRDNAKSMVYLQMNSLKPEDTAVYYCNAWHVFRGNYWGQGTQVTVSS
notes: His6-Myc-tagged monovalent VHH; also called I-8.2f; family 2
B31: the koff in test [1] came to 0.00026 s⁻¹.

B32: Jk30 (VHH)
VHH: B29 VHH with E50A, S56R, P87S, H98D, A104V
notes: His6-Myc-tagged monovalent VHH; also called I-8.2b; family 2
On to B32, for which the binding result in the test with human CD38 on cells [2] is recorded as “binds”.

B33: Jk31 (VHH)
VHH: B29 VHH with I31L, A40T, P87S, H98D, A104V
notes: His6-Myc-tagged monovalent VHH; also called I-8.2d; family 2
B33: the binding result with human CD38 on cells [2] was “binds”.

B34: WF140 (VHH)
VHH: DVQLQASGGGSVQAGGSLRLSCAASGLSFSDYAMGWFRQEPGKERRFVASIRSSGGTTYAESVKGRFTISRDNAKNTMYLQMNNLKPEDTAVYYCAADRLVITKLSIADPGYWGQGTQVTVSS
notes: also called s-15a; s-15.1a
Molecule B34 returned a koff in test [1] of 0.00054 s⁻¹.

Values taken from patent US20190276551A1 (UNIVERSITY MEDICAL CENTER HAMBURG EPPENDORF, published 2019).
